Ends that are not written are not given here. * marks the point of attachment. Fluorescein(5-Mal) = O=C1OC2(c3ccc(O)cc3Oc3cc(O)ccc32)c2ccc(N3C(=O)CC(*)C3=O)cc21
Experiments:
[1] = target: T1, human CPSF30 (residues 62–244) Y127A mutant (human, UniProt O95639-2 62-244, Y127A); assay: fluorescence polarisation
[2] = target: T2, human CPSF30 (residues 62–244) Y151A mutant (human, UniProt O95639-2 62-244, Y151A); assay: fluorescence polarisation
[3] = target: T3, human CPSF30 ZF2–C terminus (residues 62–244), wild type (human, UniProt O95639-2 62-244); assay: fluorescence polarisation
[4] = target: human CPSF30 full-length (residues 1–244) Y127A mutant (human, UniProt O95639-2 1-244, Y127A); assay: SEC
[5] = target: human CPSF30 full-length (residues 1–244) Y151A mutant (human, UniProt O95639-2 1-244, Y151A); assay: SEC
[6] = target: CPSF30 (full-length, wild type)–hFip1 (residues 79–200) complex (human, UniProt O95639-2 1-244; Q6UN15 79-200); assay: SEC
[7] = target: CPSF30 (full-length, Y127A)–hFip1 (residues 79–200) complex (human, UniProt O95639-2 1-244; Q6UN15 79-200, Y127A); assay: SEC
[8] = target: CPSF30 (full-length, Y151A)–hFip1 (residues 79–200) complex (human, UniProt O95639-2 1-244; Q6UN15 79-200, Y151A); assay: SEC
[9] = target: T1, human CPSF30 (residues 62–244) Y127A …; assay: SEC
[10] = target: T2, human CPSF30 (residues 62–244) Y151A …; assay: SEC
[11] = target: T3, human CPSF30 ZF2–C terminus (residues …); assay: SEC
[12] = target: human CPSF30 ZF4–ZF5 (residues 114–173) (human, UniProt O95639-2 114-173); assay: crystal structure

How did the Kd [1] turn out when C(Fluorescein(5-Mal))FEDKPWRKPGADLSDYFNYGFNEDTWKAYSEKQKRIRMGLE (domain or fragment, human, UniProt Q6UN15 159-200, looked up) [hFip1 (residues 159–200) S159C/C189S mutant, FAM-labeled] was run?
Its Kd is 220 ± 32 nM.

And the Kd [2]?
The Kd was 1.8 ± 0.4 nM.

What about the Kd [3] of the same binder?
Its Kd is 0.69 ± 0.31 nM.

B1: hFip1 (residues 79–200) (domain or fragment, human, UniProt Q6UN15 79-200, looked up)
chain: TETEDDSDSDSDDDEDDVHVTIGDIKTGAPQYGSYGTAPVNLNIKTGGRVYGTTGTKVKGVDLDAPGSINGVPLLEVDLDSFEDKPWRKPGADLSDYFNYGFNEDTWKAYCEKQKRIRMGLE
B1 was tested. Which “stoichiometry N” value [4] did it give?
Its value is 1 hFip1 per CPSF30.

What about the “stoichiometry N” value [5] of the same binder?
The value was 1 hFip1 per CPSF30.

B2: catalytic module of human poly(A) polymerase α (residues 1–524) (domain or fragment, UniProt P51003 1-524, looked up)
chain: MPFPVTTQGSQQTQPPQKHYGITSPISLAAPKETDCVLTQKLIETLKPFGVFEEEEELQRRILILGKLNNLVKEWIREISESKNLPQSVIENVGGKIFTFGSYRLGVHTKGADIDALCVAPRHVDRSDFFTSFYDKLKLQEEVKDLRAVEEAFVPVIKLCFDGIEIDILFARLALQTIPEDLDLRDDSLLKNLDIRCIRSLNGCRVTDEILHLVPNIDNFRLTLRAIKLWAKRHNIYSNILGFLGGVSWAMLVARTCQLYPNAIASTLVHKFFLVFSKWEWPNPVLLKQPEECNLNLPVWDPRVNPSDRYHLMPIITPAYPQQNSTYNVSVSTRMVMVEEFKQGLAITDEILLSKAEWSKLFEAPNFFQKYKHYIVLLASAPTEKQRLEWVGLVESKIRILVGSLEKNEFITLAHVNPQSFPAPKENPDKEEFRTMWVIGLVFKKTENSENLSVDLTYDIQSFTDTVYRQAINSKMFEVDMKIAAMHVKRKQLHQLLPNHVLQKKKKHSTEGVKLTALNDSSLD
How did the “stoichiometry N” value [6] turn out when B2 was run?
Its value is 2 PAP per CPSF30–hFip1 complex.

What about the “stoichiometry N” value [7] of the same binder?
Its value is 1 PAP per CPSF30–hFip1 complex.

What about the “stoichiometry N” value [8] of the same binder?
The value was 1 PAP per CPSF30–hFip1 complex.

Which results are given for SFEDKPWRKPGADLSDYFNYGFNEDTWKAYCEKQKRIRMGLE (domain or fragment, human, UniProt Q6UN15 159-200, looked up) [hFip1 (residues 159–200)]?
stoichiometry N [9]: 1 hFip1 per CPSF30; stoichiometry N [10]: 1 hFip1 per CPSF30; stoichiometry N [11]: 2 hFip1 per CPSF30; stoichiometry N [12]: 2 hFip1 per CPSF30

Reference: paper PMC7706699 (Genes & Development, 2020)
